B1: COV_1012 (antibody, V domains shown)
VH: QVQLQESGPGLVRPSGTLSLTCAVSGGSISSSNWWSWVRQPPGKGLEWIGEIYRSGSTNYNPSLKSRVTISVAQSKNQFSLNLTSVTAADTAVYYCAKIIVGAPSDAFDIWGQGTMVTVSS
VL: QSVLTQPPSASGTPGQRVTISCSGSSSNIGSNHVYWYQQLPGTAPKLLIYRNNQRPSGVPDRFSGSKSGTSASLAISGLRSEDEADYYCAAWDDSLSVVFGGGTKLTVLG
notes: human IgG1
B2: COV_2024 (antibody, V domains shown)
VH: QVQLVQSGAEVRKPGSSVKVSCKASGGTFSTYAISWVRQAPGQGLEWMGGIIPMFGTTNYAQKFQGRVTITADESTRTAYMELSSLRSEDTAVYYCARDGGYDSWPDFDYWGQGTLVTVSS
VL: EIVLTQSPATLSLSPGERATLSCRASQSISSFLAWYQQKPGQAPRLLIYDASNRATGIPARFSGSGSGTDFTLTVSSLEPEDFAVYYCHQRRNWPPIKTFGQGTKVDIK
notes: human IgG1
B3: COV_2056 (SEQ ID NO:432/437) (antibody, V domains shown)
VH: EVQLVESGGGVVQPGRSLRLSCAASGFTFSIYGMHWVRQAPGKGLEWVALISYDGTNKYYADSVKGRFSISRDDSKNTLYLQMNSLRPEDTAVYYCAKVLMMGDSSGFSLGDAFDIWGQGTMVTVSS
VL: DIQMTQSPSSVSASVGDRVTITCRASQGISNWLAWYQQKPGKAPKLLIYAASSLQSGVPSRFSGSVSGTDFTLTISSLQPEDFATYYCQQANSFPLTFGGGTKVDIK
B4: COV_2151 (antibody, V domains shown)
VH: QVQLQESGPRLVKPSETLSLTCTVSGGSISGSNYFWGWIRQPPGKGLEWIGTIYYGGSTYYNPSLKSRVTISVDTSENQFSLKLSSVTAADTAVYYCANLAWLRGYFDYWGQGTLVTVSS
VL: NFMLTQPHSVSESPGKTVTISCTRSSGSIASNYVQWYQQRPGSAPTTVIYEDNQRPSGVPDRFSGSIDSSSNSVSLTISGLKTEDEADYYCQSYDSSNWVFGGGTKLTVL
notes: human IgG1
B5: COV_3031 (antibody, V domains shown)
VH: EVQLVESGGGLVQPGRSLRLSCTTSGFNFGDNSMSWVRQAPGKGLEWVGFISNKAYGGTTEYAASVKGRFTISRDDSTSIAYLQMNSLKTEDTAIYYCIRDSYGHFPDYGFDIWGQGTMVTVSS
VL: DVVLTQTPLFLSVTPGQPASISCKSSRSLIHSDGKTYFYWFLQKPGQPPQLLIYEASNRFSGVPDRFSGSGSGTDFTLKISRVEAEDVGVYYCMHSIQLPRTFGQGTKVEIT
B6: COV_3043 (antibody, V domains shown)
VH: B5 VH with L4V, T24A, K54R, A55D, Y56H, G57S, E61D, T78K, D108N, I113V
VL: DVVMTQTPLSLSVTPGQPASISCKCSQSLIHSDGKTYQYWFLQRPGQPPQLLIYDVSNRVSGVPDRFSGSGSGTDFTLKISRVEAEDVGVYYCMHSINFPRTFGQGTKVEIT
B7: COV_3040 (antibody, V domains shown)
VH: B5 VH with E1Q, V48I, Y56H, E61D, T78K, T90A, I99T, R100K, D108S
VL: B6 VL with C25S, S26T, I30V, S32T, Q38F, R44K, N58S, V60F, G73A, K79R
B8: COV_3033 (antibody, V domains shown)
VH: EVQMVESGGGFVQPGQSPRLSCLVSGLNFADYAFCWVRQAPGKGPEWIGFISSKLHGGTTHYAASVEGRFIISRDDSKNVVYLQMDNLKAEDSAVYYCTRDSYGYFPEYGFGVWGQGTLVTVSS
VL: EVVLTQTPLSLSVTPGQPASISCRSSQSLVHSDGRTYLYWFLQKPGQPPQPLIYDISSRFSGVPYRFTGSGSGTYFTLRISRVEADDVGVYYCMHSIQLPRAFGQGTKVEIK
B9: COV_1056 (antibody, V domains shown)
VH: QVQLVESGGGVVQPGTSLRLSCEASGFTFSAYGMHWVRQAPGKGLEWVAISRNDGTTKYYADSVKGRLTISRDNSKNTLYLQMNSLTSEDTAVYYCANQCGGGCSVDSWGQGTLVTVSS
VL: QAVVTQEASLTVSPGGTVTLTCGSSTGSVTSGHAPYWFQQKPGQAPRTLIFDTTHKHSWTPARFSGSLLGGKAALTLSGAQPEDEAEYYCLLSFGGAHVFGTGTKVTVLG
B10: COV_1060 (antibody, V domains shown)
VH: EVQLVQSGAEVKKPGESLKISCKSSGYTFTSFWIAWVRQLPGKGLEWMGIIYPGDSDTKYSPSFQGQVTISADKSISTAYLQWSSLKASDTAMYYCARLRGSCSNGVCYAYYYNAMDVWGPGTTVTVSS
VL: QSALTQPASVSGSPGQSITISCTGTSSDIGRYNYVSWYQHHPGKAPKLMIYEVSNRPSGVSNRFSGSKSGNTASLTISGLQAEDEADYYCTSYTSGSTLGFGGGTKVTVLG

The results in this text go back to patent US20240101645A1 (HENRY M JACKSON FOUNDATION FOR THE ADVANCEMENT OF MILITARY …, published 2024).

Numbering of substitutions follows the chain as printed.

One assay addresses T1, HCoV-229E spike antigens (bead panel) (HCoV-229E, UniProt P15423 16-1115).
T1 sequence: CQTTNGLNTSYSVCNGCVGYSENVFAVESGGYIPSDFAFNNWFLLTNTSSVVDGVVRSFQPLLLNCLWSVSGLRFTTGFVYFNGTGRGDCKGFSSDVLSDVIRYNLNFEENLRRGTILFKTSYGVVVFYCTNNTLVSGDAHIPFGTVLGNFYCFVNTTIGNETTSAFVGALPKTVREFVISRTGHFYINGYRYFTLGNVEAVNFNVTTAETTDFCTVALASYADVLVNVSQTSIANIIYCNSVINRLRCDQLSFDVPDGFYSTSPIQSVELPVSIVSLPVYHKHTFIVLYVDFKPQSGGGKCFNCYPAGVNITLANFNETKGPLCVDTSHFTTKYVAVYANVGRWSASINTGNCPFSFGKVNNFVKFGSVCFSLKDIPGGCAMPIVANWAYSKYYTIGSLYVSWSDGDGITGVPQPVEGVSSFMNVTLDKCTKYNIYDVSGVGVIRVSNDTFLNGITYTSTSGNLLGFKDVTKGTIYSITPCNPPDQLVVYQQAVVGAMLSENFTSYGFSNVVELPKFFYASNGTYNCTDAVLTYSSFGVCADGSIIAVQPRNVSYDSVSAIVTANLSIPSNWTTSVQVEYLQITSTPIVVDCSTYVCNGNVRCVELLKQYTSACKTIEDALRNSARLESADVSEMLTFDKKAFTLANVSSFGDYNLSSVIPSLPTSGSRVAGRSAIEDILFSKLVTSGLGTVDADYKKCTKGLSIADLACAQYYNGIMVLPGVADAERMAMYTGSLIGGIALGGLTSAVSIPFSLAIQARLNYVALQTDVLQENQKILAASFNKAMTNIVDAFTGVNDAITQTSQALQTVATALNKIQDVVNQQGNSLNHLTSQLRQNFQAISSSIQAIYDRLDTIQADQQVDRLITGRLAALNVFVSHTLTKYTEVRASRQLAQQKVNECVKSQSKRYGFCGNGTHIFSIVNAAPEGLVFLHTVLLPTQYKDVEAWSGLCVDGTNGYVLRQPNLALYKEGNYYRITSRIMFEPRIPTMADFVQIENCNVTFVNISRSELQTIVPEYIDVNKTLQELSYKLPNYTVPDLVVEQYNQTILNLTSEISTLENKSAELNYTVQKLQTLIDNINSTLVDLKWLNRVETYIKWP
Description: multiplex bead assay.
Take B1: the binding result is listed as “no binding”.

Another assay addresses T2, HCoV-OC43 spike antigens (bead panel) (HCoV-OC43, UniProt P36334 14-1297).
T2 sequence: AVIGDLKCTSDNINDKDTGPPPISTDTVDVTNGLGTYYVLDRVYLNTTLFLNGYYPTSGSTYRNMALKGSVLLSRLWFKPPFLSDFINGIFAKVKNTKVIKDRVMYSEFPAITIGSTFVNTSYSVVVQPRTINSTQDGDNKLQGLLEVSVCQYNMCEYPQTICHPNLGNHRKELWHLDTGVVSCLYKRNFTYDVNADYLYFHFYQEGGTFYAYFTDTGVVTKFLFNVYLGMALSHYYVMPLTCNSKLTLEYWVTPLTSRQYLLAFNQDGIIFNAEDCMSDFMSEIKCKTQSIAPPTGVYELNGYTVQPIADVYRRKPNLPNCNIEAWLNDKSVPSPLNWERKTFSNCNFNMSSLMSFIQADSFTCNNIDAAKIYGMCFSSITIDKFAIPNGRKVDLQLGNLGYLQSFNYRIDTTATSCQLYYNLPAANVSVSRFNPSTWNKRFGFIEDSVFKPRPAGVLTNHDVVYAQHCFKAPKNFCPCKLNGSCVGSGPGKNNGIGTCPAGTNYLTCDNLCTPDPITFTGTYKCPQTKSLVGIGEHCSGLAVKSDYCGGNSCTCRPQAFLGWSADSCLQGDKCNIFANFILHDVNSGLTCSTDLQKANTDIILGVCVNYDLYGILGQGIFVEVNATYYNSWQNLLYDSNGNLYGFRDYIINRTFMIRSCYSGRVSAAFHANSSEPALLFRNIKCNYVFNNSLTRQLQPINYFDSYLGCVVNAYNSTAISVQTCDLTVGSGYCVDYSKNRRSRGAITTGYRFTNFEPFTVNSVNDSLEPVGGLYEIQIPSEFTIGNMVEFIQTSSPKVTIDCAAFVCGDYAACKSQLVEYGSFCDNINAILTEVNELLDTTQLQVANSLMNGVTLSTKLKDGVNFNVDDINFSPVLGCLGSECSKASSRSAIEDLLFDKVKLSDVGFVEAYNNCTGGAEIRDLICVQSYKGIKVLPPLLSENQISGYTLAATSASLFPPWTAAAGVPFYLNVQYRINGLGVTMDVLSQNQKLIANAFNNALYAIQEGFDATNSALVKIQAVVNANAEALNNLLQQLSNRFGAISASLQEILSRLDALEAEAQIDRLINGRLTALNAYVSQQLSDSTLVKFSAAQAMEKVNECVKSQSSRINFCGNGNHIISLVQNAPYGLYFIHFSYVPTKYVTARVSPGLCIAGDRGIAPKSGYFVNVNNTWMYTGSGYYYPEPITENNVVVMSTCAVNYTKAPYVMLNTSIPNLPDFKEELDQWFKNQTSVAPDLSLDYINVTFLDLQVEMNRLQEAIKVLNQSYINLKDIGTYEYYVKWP
Description: multiplex bead assay.
Consider B2, for which the binding result is “no binding”.
For the molecule B3, the binding result is listed as “no binding”.
In the case of B4, the binding result is recorded as “no binding”.

Another assay has as its target SARS-CoV-2 S on pseudovirions (Wuhan Hu-1 / IL1/2020, last 18 amino acids removed) (SARS-CoV-2, UniProt P0DTC2 14-1273). Kind of assay: cell-based or functional assay.
For B2, the “Mean IC50, pSV neutralization” value was determined as 9.59 µg/ml and the “Mean IC80, pSV neutralization” value was at least 25 µg/ml.
In the case of B5, the “Mean IC50, pSV neutralization” value is at least 25 µg/ml and the “Mean IC80, pSV neutralization” value was at least 25 µg/ml.
With B6, the “Mean IC50, pSV neutralization” value is at least 25 µg/ml and the “Mean IC80, pSV neutralization” value is at least 25 µg/ml.
For the molecule B7, the “Mean IC50, pSV neutralization” value is at least 25 µg/ml and the “Mean IC80, pSV neutralization” value was at least 25 µg/ml.
B8: the “Mean IC50, pSV neutralization” value is at least 25 µg/ml and the “Mean IC80, pSV neutralization” value is at least 25 µg/ml.
In the case of B9, the “Mean IC50, pSV neutralization” value is at least 25 µg/ml and the “Mean IC80, pSV neutralization” value was at least 25 µg/ml.
Regarding B3, the “Mean IC50, pSV neutralization” value is 13.2 µg/ml and the “Mean IC80, pSV neutralization” value was at least 25 µg/ml.
Consider B4, for which the “Mean IC50, pSV neutralization” value turned out to be 0.12 µg/ml and the “Mean IC80, pSV neutralization” value was 1.21 µg/ml.
In the case of B1, the “Mean IC50, pSV neutralization” value was at least 25 µg/ml and the “Mean IC80, pSV neutralization” value was at least 25 µg/ml.
In the case of B10, the “Mean IC50, pSV neutralization” value was at least 25 µg/ml and the “Mean IC80, pSV neutralization” value is at least 25 µg/ml.
